Reference: the supplement of paper PMC9170038

Test system: MS2 coat protein
Test: apparent KD of MS2 coat protein; designed switch direction (-1 OFF switch, 1 ON switch): -1; higher = weaker reporter binding
In short: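 RNA switches sharing common flanks were transcribed by stalled E. coli RNA polymerase on Illumina chips. A doubling series of SNAP-549-labelled MS2 coat protein, from 0.7 or 1.5 nM to 3 µM, was applied in Tris-HCl pH 7.5 buffer with KCl, MgCl2, BSA, DTT, tRNA and Tween-20. Each step lasted 0.8–1.5 h at the bottom of the series and 10–20 min at the top. Normalised cluster fluorescence was curve-fitted, giving apparent KD as the per-design median over clusters.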

[1] = input ligand: microRNA oligo, concentration not stated
[2] = Eterna round: R95, input ligand: microRNA oligo, concentration not stated
[3] = Eterna round: R95, input ligand: FMN 200 uM
[4] = Eterna round: R95, input ligand: none

| Sequence | apparent KD of MS2 coat protein (input ligand: FMN 200 uM) [nM] | apparent KD of MS2 coat protein [1] [nM] | apparent KD of MS2 coat protein (input ligand: none) [nM] | apparent KD of MS2 coat protein [2] [nM] | apparent KD of MS2 coat protein [3] [nM] | apparent KD of MS2 coat protein [4] [nM] |
| --- | --- | --- | --- | --- | --- | --- |
| CGCCGAGUGUUAGGAUAUCACAAGCAUCAGCGGUGAGAAGGAACAUGAGGAUCACCCAUGUACUGUCCCAUAAGGACAGGUUUC [Geestiza] (Eterna round: R96, puzzle: Exclusion NG 1) | 82.7 | 40.9 | 60.8 |  |  |  |
| CGCGUAUGAGGAUAUGCAUAAAAGGGUGCACUGAGUCUGUGACAUGAGGAUCACCCAUGUAGAAGGCGUGCGCA [Diquzain] (puzzle: Exclusion 2) |  |  |  | 25.4 |  |  |
| CGCUAGUCAGGAUAUACGAACAUGUCAAAAGACGUGAAGGGACAUGAGGAUCACCCAUGUAGAAGGGACUAGCG [Mat - Exclusion 2 - JL mod - D4] (Eterna round: R96, puzzle: Exclusion 2) | 256 | 21.3 | 32.2 |  |  |  |
| CGCUAGUCAGGAUAUACGAACAUGUCAAAAGACGUGAAGGGACAUGAGGAUCACCCAUGUAGAAGGGACUAGCG [salish99_ex2_r3_012] (puzzle: Exclusion 2) |  |  |  | 20 | 152 | 28.5 |
| CGGAGCAGAGGGAGAUCCAACAUGAGGAUCACCCAUGUCUCACAAGCUUUUUGCUCGUCUUAUUGUACCUUGGUACU [JL ViennaUCT Edcesobi mod 8] (puzzle: Sensor v3, turn-off variant 1) |  |  |  | 9.75 | 155 | 54.6 |
| CGGCAAUCCUAGGAUAUGCUAGACGAUAGUCUAGCAGAAGGAGGAACAUGAGGAUCACCCAUGUGUCCUAGCCG [Mat - Exclusion 6 - Eli Mod - D14] (Eterna round: R97, puzzle: Exclusion 6) | 17.8 |  | 14.4 |  |  |  |
| CGGCAUGUACAAGGAUAUCAGCACGUUUAGUGCUGAGAAGGUGUAACAUGAGGAUCACCCAUGUAGAUCAUUAACCGAUUAAUU [ENG1/9-A1] (Eterna round: R96, puzzle: Exclusion NG 1) | 128 | 48.1 | 59 |  |  |  |
| CGGCCUCGAGGAUAUGCUAUAAAAUGACCUUGGGUCAAAUGACUUGAGGAUCACCCAAGUAGAAGGCGAAAGCC [Bibice] (Eterna round: R97, puzzle: Exclusion 2) | 102 |  | 93 |  |  |  |
| CGGGAGGGACAAGCUGUUUGCACGUCUGGUAGUGAUGCAACAUGAGGAUCACCCAUGUAUAGGGUGUGAGAGGAUGG [JR_SV3TOV2_Sub050] (Eterna round: R96, puzzle: Sensor v3, turn-off variant 2) | 1330 | 149 | 338 |  |  |  |
| CGGGAGGGACAAGCUGUUUGCACGUCUGGUAGUGAUGCAACAUGAGGAUCACCCAUGUAUAGGGUGUGAGAGGAUGG [JR_SV3TOV2_Sub050] (puzzle: Sensor v3, turn-off variant 2) |  |  |  | 89.6 | 47.1 | 107 |
| CGGGCCGGCCUUCCGGCCGGCCCGACAUGAGGAUCACCCAUGUAGGAUAUCCCGGCUGCCGGCCGGGAGAAGGGCGUGCGUCCC [-49.5, -48.5 kcal, 14% A] (Eterna round: R96, puzzle: Exclusion NG 3) | 39.8 | 27.6 | 33.5 |  |  |  |
| CGGUCCCAUGUGAGGAUAUCGGAGCGAAAAUACUGCGAGAAGGUACAUGAGGAUCACCCAUGUCUCCUAUUGCC [Entiedxebe] (puzzle: Brourd's mod of Exclusion 4) |  |  |  | 15.2 |  |  |
| CGGUGCAGGCUGCGGUCCUACAUGAGGAUCACCCAUGUGGUCCGGUGGCGUGGGUCGCCGGACUUGGCUCGUCUUGU [salish99_S_TOV1_R5_015] (Eterna round: R97, puzzle: Sensor, turn-off variant 1) | 56.8 |  | 75.6 |  |  |  |
| CGGUGCUCGUGGAAACAUGAGGAUCACCCAUGUAGAGUUAGCGAGGAUAUCGGUAACACAUAUCACGAGAAGGCGCGAACCUGA [Ex NG3 #30] (Eterna round: R96, puzzle: Exclusion NG 3) | 27.8 | 11.7 | 16.3 |  |  |  |
| CGGUGCUCGUGGAAACAUGAGGAUCACCCAUGUUGAGUUAGCGAGGAUAUCGGUAACACAUGUCACGAGAAGGCGCGAACCAGA [Ex NG3 #32] (Eterna round: R96, puzzle: Exclusion NG 3) | 18.7 | 9.96 | 14.9 |  |  |  |
| CGGUGCUGAGGAUAUACAUGAGGAUCACCCAUGUGUUCCAGCUAGGUGACUGGCAGAUGUAGAAGGCGGUACUG [JL-ex3-3.38 Brourd mod] (puzzle: Exclusion 3) |  |  |  | 98.6 | 72.2 | 102 |
| CGGUGCUGAGGAUAUACAUGAGGAUCACCCAUGUGUUCUUGCUAGAAAACUGGCAGAUGUAGAAGGCGGUACUG [Mat - Exclusion 3 - Mod of JL D98] (puzzle: Exclusion 3) |  |  |  | 35.4 | 285 | 36.6 |

| Sequence | apparent KD of MS2 coat protein (input ligand: FMN 200 uM) [nM] | apparent KD of MS2 coat protein [1] [nM] | apparent KD of MS2 coat protein (input ligand: none) [nM] | apparent KD of MS2 coat protein [2] [nM] | apparent KD of MS2 coat protein [3] [nM] | apparent KD of MS2 coat protein [4] [nM] |
| --- | --- | --- | --- | --- | --- | --- |
| CGGUGUAACAGAGGAUAUCAGCGCAACUGACGAUGAGAAGGCUGACAUGAGGAUCACCCAUGUGAUUUCUCAAUAUUAUACAUC [Prohibition 88 - Jieux - Exclusion NG 1] (Eterna round: R96, puzzle: Exclusion NG 1) | 371 | 72.3 | 100 |  |  |  |
| CGUAGAUUAGGAUAUUGCUCGCUGGACAUGAGGAUCACCCAUGUGCGUGUCGUGCGAAGUCAAGAAGGAGUGUGUG [Eternabot (L2) Solution 40] (Eterna round: R97, puzzle: Exclusion 5) | 35.6 |  | 18 |  |  |  |
| CGUAGCAAAGUGAGGAUAUCUAGAGCUUCGGCUCUAGAGAAGGCACAUGAGGAUCACCCAUGUGAUUAGCUACG [BmEx4/9-A1] (Eterna round: R97, puzzle: Brourd's mod of Exclusion 4) | 152 |  | 29.8 |  |  |  |
| CGUAGUCUUCGGACUACGAACAUGAGGAUCACCCAUGUAAUGAGCAGAUCUUCAUGCAAGCUUUUUGCUCGUCUUAU [Sensor v3 - turn-off variant 1 - 43] (puzzle: Sensor v3, turn-off variant 1) |  |  |  | 14.7 | 148 | 227 |
| CGUAUCUUUCACGUGAGUAGUGGGUGCAACAGGUGGGUUACAUGAGGAUCACCCAUGUCCUCACUUGCUCGUCUUAU [Grok-var2-05] (puzzle: Sensor v3, turn-off variant 2) |  |  |  | 124 | 37.8 | 37.5 |
| CGUCCACAUGAGGAUCACCCAUGUGAGGAUAUCUAGCACGCAGUAGUACUGUGACAUCGGAGAAGGCGUAGGGU [Eternabot (L2) Solution 96] (Eterna round: R97, puzzle: Exclusion 1) | 32.2 |  | 21.2 |  |  |  |
| CGUCCGGCUUCCCUUCAAAACAUGAGGAUCACCCAUGUUUUUGUUUUUGCGAGCUUUUUGCUUUUUGCUCGUCUUGU [Even Better Attempt] (puzzle: Sensor v3, turn-off variant 1) |  |  |  | 12.5 | 20.1 | 19.9 |
| CGUCCUCUAGUCAGGAUAUUGUCUCGGAUACGAAACAAGAAGGGACAUGAGGAUCACCCAUGUAAUGAGGACGA [Malc #30 mod 15] (puzzle: Brourd's mod of Exclusion 4) |  |  |  | 33.1 | 20.1 | 33.8 |
| CGUCCUGUAGUCAGGAUAUUGUCUCGGAUACGAAACAAGAAGGGACAUGAGGAUCACCCAUGUAAUCAGGACGA [Malc #30 mod 13] (puzzle: Brourd's mod of Exclusion 4) |  |  |  | 36.5 | 19.5 | 36.5 |
| CGUCGAAAUGUAGGAUAUCUGCACGAUUAGUGCAGAGAAGGACAUGAGGAUCACCCAUGUAGAUCACGACGAAUUAAUUUAAUU [ENG1/5-C1] (Eterna round: R96, puzzle: Exclusion NG 1) |  | 48.4 |  |  |  |  |
| CGUCUACCAAAACCGAACAACAUGAGGAUCACCCAUGUCACUCCGCCUUAAACCUACGGAGUAAAGUGGGCGCAAAA [Vesocegeer] (Eterna round: R96, puzzle: Sensor v2, turn-off variant) | 32.2 | 28.5 | 33.2 |  |  |  |
| CGUCUGUAAGGAUAUGGUUGCAUCAACAUGAGGAUCACCCAUGUAACGUGGGACUAGUGAUUAGAAGGUACGAACG [EX5 #60] (Eterna round: R97, puzzle: Exclusion 5) | 93.8 |  | 118 |  |  |  |
| CGUCUGUAAGGAUAUGGUUGUAUCGACAUGAGGAUCACCCAUGUGACGUGGGACUAGUGAUUAGAAGGUACGAACG [EX5 #63] (Eterna round: R97, puzzle: Exclusion 5) | 876 |  | 672 |  |  |  |
| CGUCUGUCAGGAUAUACUUACGUAGACAUGAGGAUCACCCAUGUGACGUGGGACUGGUGAGUAGAAGGGACGAACA [EX5 #75] (Eterna round: R97, puzzle: Exclusion 5) | 28 |  | 30.6 |  |  |  |
| CGUGACUGAGGAUAUCUAUGAUGUCACAUGAGGAUCACCCAUGUCCAGCGAAAGCUGGAGGGAGAAGGCAGUCACG [Fiskers Ex 5 - 31] (puzzle: Exclusion 5) |  |  |  | 122 | 34.5 | 115 |
| CGUGCGUAUGUGAGGAUAUGCUGGUCCUUGGAUCGGCAGAAGGCACAUGAGGAUCACCCAUGUGGUGUCGUACA [salish99_Bmod_ex4_088] (puzzle: Brourd's mod of Exclusion 4) |  |  |  | 215 |  |  |
